Laboratory results: patent US20250084169A1
Like-named read-outs stand apart in the source and are kept apart here.

Assays:
[1] = biological target: cynomolgus monkey Fc gamma receptor CD64 (cynomolgus monkey)
[2] = biological target: cynomolgus monkey Fc gamma receptor CD64 (cynomolgus monkey); remark: listed apart in the source
[3] = biological target: cynomolgus monkey Fc gamma receptor CD32a (cynomolgus monkey)
[4] = biological target: cynomolgus monkey Fc gamma receptor CD32a (cynomolgus monkey); remark: listed apart in the source
[5] = biological target: cynomolgus monkey Fc gamma receptor CD32b (cynomolgus monkey)

Chain of Tafasitamab-cxix (research grade biosimilar) (antibody) (heavy): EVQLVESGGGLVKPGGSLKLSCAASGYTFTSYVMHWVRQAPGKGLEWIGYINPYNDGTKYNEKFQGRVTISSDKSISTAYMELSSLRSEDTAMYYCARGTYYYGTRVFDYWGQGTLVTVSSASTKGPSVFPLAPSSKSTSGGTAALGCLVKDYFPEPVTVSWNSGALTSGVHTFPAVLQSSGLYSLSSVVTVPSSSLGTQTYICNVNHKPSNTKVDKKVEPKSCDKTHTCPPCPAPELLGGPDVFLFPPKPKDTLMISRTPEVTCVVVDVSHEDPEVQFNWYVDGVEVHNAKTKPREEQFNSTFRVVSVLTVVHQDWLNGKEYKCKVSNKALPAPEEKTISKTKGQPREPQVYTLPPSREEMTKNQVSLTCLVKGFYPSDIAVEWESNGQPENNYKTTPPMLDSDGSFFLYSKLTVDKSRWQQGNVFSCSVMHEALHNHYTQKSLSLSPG
Chain of Tafasitamab-cxix (research grade biosimilar) (antibody) (light): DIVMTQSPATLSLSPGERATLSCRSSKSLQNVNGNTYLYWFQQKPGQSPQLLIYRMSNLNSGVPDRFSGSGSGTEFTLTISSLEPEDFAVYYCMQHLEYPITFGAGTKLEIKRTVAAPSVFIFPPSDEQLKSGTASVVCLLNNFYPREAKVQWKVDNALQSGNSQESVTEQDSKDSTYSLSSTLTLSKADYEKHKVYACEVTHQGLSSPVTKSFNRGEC

| Kd [1] [nM] | Kd [2] [nM] | Kd [3] [nM] | Kd [4] [nM] | Kd [5] [nM] | Substance |
| --- | --- | --- | --- | --- | --- |
| 1 | < 0.02 |  |  |  | FMC59-S239D/I332E (huFMC63-S239D/I332E) (antibody) |
| 1.8 | < 0.02 |  |  |  | Tafasitamab-cxix (research grade biosimilar) (antibody) |
|  | < 0.02 | 5940 | 3130 | 1460 | Rituximab (antibody) |
